The values that follow are results of earlier work, collected in article PMC3479961.

pKd: −log10 of the molar value.

Common to all, as to assay: surface plasmon resonance
In one data set the target is plasmin (Homo sapiens) (UniProt P00747).
In a further data set the target is tPA (Homo sapiens) (UniProt P00750).
Data set [1] has as its target plasminogen (Homo sapiens) (UniProt P00747).

Sequence of UniProt P00750 (P00750 36-562): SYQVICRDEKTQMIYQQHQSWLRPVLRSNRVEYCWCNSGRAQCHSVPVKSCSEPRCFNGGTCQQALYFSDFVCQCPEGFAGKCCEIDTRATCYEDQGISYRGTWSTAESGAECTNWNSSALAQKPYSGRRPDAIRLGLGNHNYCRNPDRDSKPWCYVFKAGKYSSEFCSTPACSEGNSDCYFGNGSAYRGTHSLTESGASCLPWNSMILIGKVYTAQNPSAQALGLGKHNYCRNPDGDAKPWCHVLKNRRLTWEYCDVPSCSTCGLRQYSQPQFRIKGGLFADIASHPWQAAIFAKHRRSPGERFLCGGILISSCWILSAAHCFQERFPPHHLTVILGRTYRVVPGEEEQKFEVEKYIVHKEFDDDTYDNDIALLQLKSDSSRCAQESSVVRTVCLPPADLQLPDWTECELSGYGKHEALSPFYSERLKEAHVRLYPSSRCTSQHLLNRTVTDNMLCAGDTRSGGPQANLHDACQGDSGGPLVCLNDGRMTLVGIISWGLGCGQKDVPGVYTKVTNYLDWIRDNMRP

For S100A10 (from UniProt P60903), the pKd with plasmin (Homo sapiens) is 6.44; with tPA (Homo sapiens), 6.35; in data set [1], 5.74.
